The target in the assay is C4-aa^1355 monoclonal antibody. The assay is described as follows: competitive C4-aa^1355 ECLIA, peptide in solution against the biotinylated coating peptide.
Chain of C4-aa^1355 monoclonal antibody (VH, as listed by the source, chain 1 of 2): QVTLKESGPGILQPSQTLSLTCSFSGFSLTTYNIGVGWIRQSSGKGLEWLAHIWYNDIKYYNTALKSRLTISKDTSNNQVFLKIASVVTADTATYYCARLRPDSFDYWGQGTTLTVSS
Chain of C4-aa^1355 monoclonal antibody (VL, as listed by the source, chain 2 of 2): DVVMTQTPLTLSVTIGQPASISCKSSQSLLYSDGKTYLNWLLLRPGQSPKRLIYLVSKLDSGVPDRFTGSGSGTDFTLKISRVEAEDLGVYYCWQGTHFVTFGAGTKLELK

As for MGNSGPTGAV [Deselection peptide 2 …], the signal left at the highest peptide concentration (% B/B0) is 65%.

For the origin of these results see US20230030529A1.
